Assay [1] addresses T1, human O-GlcNAcase (hOGA) Y69K (human) (UniProt O60502).
T1 sequence: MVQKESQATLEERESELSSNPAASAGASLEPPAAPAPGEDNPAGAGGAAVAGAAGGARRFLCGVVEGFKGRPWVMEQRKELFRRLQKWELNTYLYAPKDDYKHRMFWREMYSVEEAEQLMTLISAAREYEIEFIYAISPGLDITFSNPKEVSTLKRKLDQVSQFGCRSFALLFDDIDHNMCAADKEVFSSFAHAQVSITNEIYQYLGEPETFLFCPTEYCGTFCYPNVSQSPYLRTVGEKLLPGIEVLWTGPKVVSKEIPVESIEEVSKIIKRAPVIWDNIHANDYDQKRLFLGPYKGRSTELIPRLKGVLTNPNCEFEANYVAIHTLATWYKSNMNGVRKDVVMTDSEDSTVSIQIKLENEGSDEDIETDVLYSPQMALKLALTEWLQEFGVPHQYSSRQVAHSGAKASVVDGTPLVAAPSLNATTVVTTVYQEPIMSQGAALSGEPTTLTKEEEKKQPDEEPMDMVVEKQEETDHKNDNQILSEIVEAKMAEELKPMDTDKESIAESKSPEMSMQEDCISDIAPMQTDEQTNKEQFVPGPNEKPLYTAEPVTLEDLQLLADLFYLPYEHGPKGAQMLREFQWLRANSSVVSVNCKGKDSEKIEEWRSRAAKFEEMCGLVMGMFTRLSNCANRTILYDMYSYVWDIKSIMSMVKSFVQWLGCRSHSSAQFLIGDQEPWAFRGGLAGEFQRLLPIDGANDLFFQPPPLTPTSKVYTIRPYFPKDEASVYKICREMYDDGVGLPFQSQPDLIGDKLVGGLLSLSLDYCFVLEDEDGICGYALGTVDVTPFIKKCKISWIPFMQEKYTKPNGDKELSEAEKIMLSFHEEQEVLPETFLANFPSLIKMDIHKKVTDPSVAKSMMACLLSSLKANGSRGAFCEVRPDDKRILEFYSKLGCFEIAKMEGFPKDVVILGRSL

The target in assay [2] is T2, human O-GlcNAcase (hOGA) Y69S (human) (UniProt O60502).
T2 sequence: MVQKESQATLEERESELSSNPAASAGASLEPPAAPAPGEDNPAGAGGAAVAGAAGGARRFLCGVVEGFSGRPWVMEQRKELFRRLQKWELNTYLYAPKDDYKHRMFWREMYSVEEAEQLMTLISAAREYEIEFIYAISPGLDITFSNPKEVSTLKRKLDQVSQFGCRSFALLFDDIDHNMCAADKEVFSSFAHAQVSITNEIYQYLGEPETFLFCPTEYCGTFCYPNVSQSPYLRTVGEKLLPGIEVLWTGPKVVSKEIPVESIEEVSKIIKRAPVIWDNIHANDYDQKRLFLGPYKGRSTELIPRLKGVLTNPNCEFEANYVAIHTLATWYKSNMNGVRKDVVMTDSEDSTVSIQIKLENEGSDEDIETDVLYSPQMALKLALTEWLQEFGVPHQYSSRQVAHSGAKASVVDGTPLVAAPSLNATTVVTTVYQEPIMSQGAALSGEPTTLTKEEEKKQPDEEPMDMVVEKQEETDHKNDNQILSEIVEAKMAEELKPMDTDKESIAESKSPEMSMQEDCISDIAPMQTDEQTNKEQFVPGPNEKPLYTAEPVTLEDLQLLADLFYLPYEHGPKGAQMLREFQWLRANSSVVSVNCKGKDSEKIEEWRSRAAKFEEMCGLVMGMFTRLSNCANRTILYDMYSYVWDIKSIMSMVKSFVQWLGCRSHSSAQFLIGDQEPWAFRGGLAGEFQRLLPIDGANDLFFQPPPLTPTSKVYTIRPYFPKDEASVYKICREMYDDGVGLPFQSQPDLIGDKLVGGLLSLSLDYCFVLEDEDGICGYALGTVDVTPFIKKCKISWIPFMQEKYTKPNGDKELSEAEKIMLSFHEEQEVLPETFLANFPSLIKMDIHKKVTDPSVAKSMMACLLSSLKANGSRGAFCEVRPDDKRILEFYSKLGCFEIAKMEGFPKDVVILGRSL

In assay [3] the target is T3, human O-GlcNAcase (hOGA) Y69Q (human) (UniProt O60502).
T3 sequence: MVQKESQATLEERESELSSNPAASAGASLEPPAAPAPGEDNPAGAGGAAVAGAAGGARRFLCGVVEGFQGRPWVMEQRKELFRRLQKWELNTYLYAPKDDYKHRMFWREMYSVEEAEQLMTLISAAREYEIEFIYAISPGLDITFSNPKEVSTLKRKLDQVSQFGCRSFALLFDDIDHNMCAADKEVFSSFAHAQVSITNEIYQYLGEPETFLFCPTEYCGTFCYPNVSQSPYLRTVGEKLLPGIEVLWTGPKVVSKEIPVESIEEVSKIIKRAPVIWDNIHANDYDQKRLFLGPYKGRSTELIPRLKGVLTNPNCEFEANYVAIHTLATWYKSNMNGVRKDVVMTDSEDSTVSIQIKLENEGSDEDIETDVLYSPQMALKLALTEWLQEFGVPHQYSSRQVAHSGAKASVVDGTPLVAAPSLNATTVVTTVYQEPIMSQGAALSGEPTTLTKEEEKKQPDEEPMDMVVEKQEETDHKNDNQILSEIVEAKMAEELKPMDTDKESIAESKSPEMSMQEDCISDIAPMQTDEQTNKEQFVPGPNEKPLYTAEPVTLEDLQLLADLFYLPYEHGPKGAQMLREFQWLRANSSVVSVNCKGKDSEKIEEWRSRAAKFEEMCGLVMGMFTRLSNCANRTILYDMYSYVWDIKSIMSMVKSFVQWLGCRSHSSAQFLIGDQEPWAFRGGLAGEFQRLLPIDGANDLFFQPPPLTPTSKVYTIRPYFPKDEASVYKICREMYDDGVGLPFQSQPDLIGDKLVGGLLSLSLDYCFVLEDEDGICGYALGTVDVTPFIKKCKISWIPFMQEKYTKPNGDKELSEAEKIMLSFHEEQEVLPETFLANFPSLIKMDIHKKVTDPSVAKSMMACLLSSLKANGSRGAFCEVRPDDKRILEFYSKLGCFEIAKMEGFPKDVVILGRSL

*: point of attachment. βGlcNAc = CC(=O)N[C@@H]1[C@@H](O)[C@H](O)[C@@H](CO)O[C@H]1*

B1: TAB1 peptide PVSVPYS(O-GlcNAc)SAQSTS (peptide)
peptide: Ac-PVSVPYS(βGlcNAc)SAQSTS-NH2
SMILES: CC(=O)N[C@H]1[C@H](OC[C@H](NC(=O)[C@H](Cc2ccc(O)cc2)NC(=O)[C@@H]2CCCN2C(=O)[C@@H](NC(=O)[C@H](CO)NC(=O)[C@@H](NC(=O)[C@@H]2CCCN2C(C)=O)C(C)C)C(C)C)C(=O)N[C@@H](CO)C(=O)N[C@@H](C)C(=O)N[C@@H](CCC(N)=O)C(=O)N[C@@H](CO)C(=O)N[C@H](C(=O)N[C@@H](CO)C(N)=O)[C@@H](C)O)O[C@H](CO)[C@@H](O)[C@@H]1O
Take B1: the values for the KM of the glycopeptide substrate (substrate competition assay with 4MU-GlcNAc as reporter substrate) in assay [1], in assay [2] and in assay [3] were over 4 mM, over 4 mM and 3.6 mM, respectively.
